Reference: paper PMC3542976
Like-named read-outs stand apart in the source and are kept apart here.

Key:
p20 (dsRBD of PKR) [1] = molecular target: T1, p20 (dsRBD of PKR) (UniProt P19525 1-184); assay: SAXS
PKR K296R full length = PKR K296R full length (UniProt P19525 1-551, K296R); assay: EMSA
p20 (dsRBD of PKR) [2] = molecular target: T1, p20 (dsRBD of PKR); assay: SAXS; remark: listed apart in the source

Chain of PKR K296R full length (P19525 whole entry K296R): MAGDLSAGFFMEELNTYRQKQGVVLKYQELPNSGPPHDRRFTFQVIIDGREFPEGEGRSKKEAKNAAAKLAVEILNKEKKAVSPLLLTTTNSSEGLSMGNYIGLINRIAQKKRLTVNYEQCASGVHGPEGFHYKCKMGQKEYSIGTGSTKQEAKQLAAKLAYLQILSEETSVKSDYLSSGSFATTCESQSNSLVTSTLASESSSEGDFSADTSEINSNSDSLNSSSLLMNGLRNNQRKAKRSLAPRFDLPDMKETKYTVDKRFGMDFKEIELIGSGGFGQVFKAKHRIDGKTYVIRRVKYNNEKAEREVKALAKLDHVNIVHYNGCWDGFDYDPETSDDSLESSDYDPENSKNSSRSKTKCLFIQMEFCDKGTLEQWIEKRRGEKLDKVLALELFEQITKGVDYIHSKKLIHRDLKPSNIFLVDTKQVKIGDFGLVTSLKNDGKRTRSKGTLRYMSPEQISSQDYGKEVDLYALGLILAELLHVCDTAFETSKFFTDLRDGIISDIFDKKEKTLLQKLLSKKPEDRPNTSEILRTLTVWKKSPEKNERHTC
T1 sequence (P19525 1-184): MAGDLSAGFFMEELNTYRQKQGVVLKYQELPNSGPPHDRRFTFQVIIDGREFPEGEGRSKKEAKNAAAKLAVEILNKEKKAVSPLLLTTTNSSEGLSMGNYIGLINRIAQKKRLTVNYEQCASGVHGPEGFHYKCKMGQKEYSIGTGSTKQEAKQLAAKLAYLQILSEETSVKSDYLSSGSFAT

Binder	binding result (p20 (dsRBD of PKR) [1])	binding result (PKR K296R full length)	binding result (p20 (dsRBD of PKR) [2])
r(TSA3)/drd(BS) A3-bulged chimeric duplex (mixed, strand 2 is DNA22-RNA16-DNA22 (RNA at 23-38)) RNA: GGGAGAGGCAAGUCGUUCGGUCGCGUUCGCAAAUGUCGUCGCGUCUUGUAUGCCACUGUACCC DNA: GGGTACAGTGGCATACAAGACGCGACGACAGCGAACGCGACCGAACGACTTGCCTCTCCC	binds	binds	
r(TSA6)/drd(BS) A6-bulged chimeric duplex (mixed, strand 2 is DNA22-RNA16-DNA22 (RNA at 23-38)) RNA: GGGAGAGGCAAGUCGUUCGGUCGCGUUCGCAAAAAAUGUCGUCGCGUCUUGUAUGCCACUGUACCC DNA: GGGTACAGTGGCATACAAGACGCGACGACAGCGAACGCGACCGAACGACTTGCCTCTCCC		binds	binds
